Reference: patent publication US20210238302A1, “HIGH AFFINITY MONOCLONAL ANTIBODIES (MABS) AGAINST CELL SURFACE EXPRESSED HUMAN CARBONIC ANHYDRASE IX (HCA-IX), AND USES THEREOF” (NATIONAL RESEARCH COUNCIL OF CANADA, priority 2018, published 2021)
Several values for one entry are separate records, joined by “and”; a condition that tells them apart may be missing. Equal values may be shown once. Entries after “also recorded” stand apart in the source; their conditions may differ. Read-outs that look alike come from different tables or passages of the source.

Assays:
[1] = molecular target: T1, rhCA-IX ECD (Homo sapiens, UniProt Q16790); assay: Reverse Phase Protein Array (RPPA); type: binding
[2] = system: SK-RC-52 cells; assay: Internalization of pHAb dye labeled mAbs; type: cell-based, human; conditions: antibody-pHAb dye conjugates, 37° C., 24 h
Description: In addition, we also evaluated the internalization potential of these mAbs with the thought of using these enzyme-inhibiting mAbs to bring a toxic pay-load into cancer cells. For this, both mAbs, in addition to a negative control IgG, were labeled with a pH sensitive reactive dye (pHAb; Promega). Upon receptor-mediated internalization, these antibody-pHAb Dye conjugates traffick to the endosome and lysosomal vesicles where pH is acidic, causing the pHAb dye to fluoresce. CA-IX expressing SK-RC-52 expressing cells were incubated with these antibody-pHAb dye conjugates (10 μg/mL) and incubated at 37° C. (5% CO2, humidified environment) for 24 h (FIG. 18A) or coated with various concentrations of the conjugates for 30 min at 4° C., washed, and then transferred to 37° C. (5% CO2, humidified environment) for 24 h (FIG. 18B).

[3] = molecular target: rhCA-IX ECD Monomer (Homo sapiens, UniProt Q16790)
Method: (§1) SPR experiments were carried out by capturing the CA-IX mAbs from the CM with an anti-mouse Fc antibody immobilized on the chip surface, after which rhCA-IX EDC mixture, or rhCA-IX EDC monomer or dimer were flowed over the mAb surface.

[4] = molecular target: rhCA-IX ECD Dimer (Homo sapiens, UniProt Q16790)
Method: as §1

[5] = Differential Scanning Calorimetry (DSC) thermostability; type: physicochemical; conditions: DSC 25° C. to 100° C., scan rate 90° C./hour; versus Cetuximab
Method: (scan rate 90° C./hour). The therapeutic anti-EGFR Ab Cetuximab, which has been proven to be a very stable under these conditions, was used as control.

[6] = molecular target: rhCA-XII (Homo sapiens, UniProt O43570); assay: Cross-reactivity determination by SPR; type: binding
Sequence of rhCA-XII (O43570 25-354): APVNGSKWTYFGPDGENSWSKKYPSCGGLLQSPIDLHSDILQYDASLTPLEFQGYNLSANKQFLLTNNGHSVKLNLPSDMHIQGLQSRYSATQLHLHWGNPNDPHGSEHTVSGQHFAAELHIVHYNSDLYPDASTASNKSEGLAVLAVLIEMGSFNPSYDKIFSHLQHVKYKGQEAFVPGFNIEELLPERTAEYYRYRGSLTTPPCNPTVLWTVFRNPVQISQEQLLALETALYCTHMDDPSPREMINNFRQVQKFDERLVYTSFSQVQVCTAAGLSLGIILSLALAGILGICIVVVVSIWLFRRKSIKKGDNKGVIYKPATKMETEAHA
Description: (§2) hCA-IX is one of several hCAs that have been identified to date (see FIG. 1). […] In contrast to hCA-IX the expression pattern of hCA-XII is much more widespread and not as cancer specific as hCA-IX.

[7] = molecular target: rhCA-XIV (Homo sapiens, UniProt Q9ULX7); assay: Cross-reactivity determination by SPR; type: binding
Sequence of rhCA-XIV (Q9ULX7 16-337): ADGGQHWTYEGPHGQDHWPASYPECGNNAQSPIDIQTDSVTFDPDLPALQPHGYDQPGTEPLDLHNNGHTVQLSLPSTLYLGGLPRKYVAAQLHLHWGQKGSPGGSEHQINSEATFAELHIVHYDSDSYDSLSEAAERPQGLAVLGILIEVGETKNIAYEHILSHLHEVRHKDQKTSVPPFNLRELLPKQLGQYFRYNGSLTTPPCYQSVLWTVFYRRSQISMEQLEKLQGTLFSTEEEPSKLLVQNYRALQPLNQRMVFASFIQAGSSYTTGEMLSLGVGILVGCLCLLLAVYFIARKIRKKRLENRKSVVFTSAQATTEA
Description: as §2

[8] = molecular target: rhCA-IV (Homo sapiens, UniProt P22748); assay: Cross-reactivity determination by SPR; type: binding
Sequence of rhCA-IV (P22748 19-284): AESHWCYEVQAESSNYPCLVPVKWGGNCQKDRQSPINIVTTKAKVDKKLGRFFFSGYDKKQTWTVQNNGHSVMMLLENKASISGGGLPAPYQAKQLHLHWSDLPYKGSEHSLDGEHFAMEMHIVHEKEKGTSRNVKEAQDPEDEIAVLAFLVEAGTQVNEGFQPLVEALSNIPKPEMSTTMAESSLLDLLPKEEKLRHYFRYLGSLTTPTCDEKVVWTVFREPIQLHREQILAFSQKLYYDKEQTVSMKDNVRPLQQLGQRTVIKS
Description: as §2

[9] = molecular target: rhCA-IX ECD monomer or dimer (Homo sapiens, UniProt Q16790)
[10] = system: hCA-IX ECD fragments; assay: Epitope mapping by Yeast Surface Display (whole yeast cell ELISA); type: binding, human; design: key: −: no binding; +: binding
Method: Yeast Surface Display (YSD; developed by the Wittrup lab) is used for presenting properly folded (ensured by the “quality-control” processes of the secretory pathway of the yeast) antigen fragments on the yeast cell surface through covalent linkage (FIG. 15A). […] The epitope mapping of the mAbs was performed using a whole yeast cell ELISA protocol. […] These experiments were performed on native and denatured yeast cells, where in both cases binding of each mAb was normalized to the anti-MYC signal. The ratio of each normalized anti-CA-IX mAb signal of native versus denatured hCA-IX peptide is thus indicative of the conformational nature of the mAb binding epitope. In the native hCA-IX experiments the commercial M75 mAb was used as a positive control; the epitope of this mAb is known (Zavada et al., 2000) and is located in hCA-IX's PG domain.

[11] = molecular target: T1, rhCA-IX ECD; assay: Western blot of non-purified mAbs on purified CA-IX ECD antigen; type: binding; conditions: undiluted CM; non-reducing and reducing conditions
Description: Anti-hCA-IX mAb 10F2 is shown as a positive control.

[12] = molecular target: T2, low hCA-IX expressing SK-RC-59 cells (Homo sapiens, UniProt Q16790); assay: Flow cytometry binding, SK-RC-59 cells; type: cell-based; conditions: SK-RC-59 (low hCA-IX)
T2 construct: the non-transfected human renal tumor SK-RC-59 and SK-RC-52 cell lines; endogenous in cells; host or cells: SK-RC-52 (high hCA-IX), SK-RC-59 (low hCA-IX)
Method: These cell lines have been used in the literature for the screening of scFv Abs for binding to hCA-IX (Xu et al., 2011). Western blot analysis of these cell lines under reducing and non-reducing conditions (FIG. 8) confirmed the expression of hCA-IX in the SK-RC-52 cell line (indicated with a star), whereas no hCA-IX could be detected in the SK-RC-59 cell line. Equal protein quantities were loaded (BCA protein assay) which was confirmed by an actin blot.
Flow cytometry: mAbs were evaluated in a flow cytometry experiment using the SK-RC-59 and SK-RC-52 cell lines. As controls a commercially available mAb (R&D, Clone #303123, Cat #MAB2188) and the M75 mAb (generously supplied by Dr E Oosterwijk, Radboud University Nijmegen, The Netherlands) were used. Experiments were plotted per cell line (FIG. 9) using a double Y-axis (left Y-axis, % live cells, closed squares; right Y-axis, mean fluorescence intensity of the live population, closed circles; X-axis, experimental groups).

[13] = Cell viability; type: cell-based
[14] = molecular target: rmCA-IX (Mus musculus, UniProt Q8VHB5); assay: Cross-reactivity determination by SPR; type: binding, murine
Sequence of rmCA-IX (Q8VHB5 32-437): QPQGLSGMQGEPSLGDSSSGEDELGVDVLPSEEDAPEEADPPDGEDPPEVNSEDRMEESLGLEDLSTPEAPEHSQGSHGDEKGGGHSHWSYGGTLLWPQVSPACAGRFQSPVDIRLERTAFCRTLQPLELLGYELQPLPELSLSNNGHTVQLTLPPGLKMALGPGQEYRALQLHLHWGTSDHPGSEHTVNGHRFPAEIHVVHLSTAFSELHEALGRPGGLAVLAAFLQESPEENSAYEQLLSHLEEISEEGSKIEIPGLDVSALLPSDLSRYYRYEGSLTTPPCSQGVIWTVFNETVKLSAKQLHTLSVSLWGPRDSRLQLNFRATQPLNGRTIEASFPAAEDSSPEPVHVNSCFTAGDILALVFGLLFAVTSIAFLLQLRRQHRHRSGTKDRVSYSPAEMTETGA
Description: as §2

[15] = molecular target: T1, rhCA-IX ECD; type: biochemical
Description: To determine whether these mAbs can inhibit the enzyme activity of the rhCA-IX ECD protein, we used an activity assay in which 4-Nitrophenyl acetate (4-NPA) is used as a substrate. […]

[16] = hybridoma-derived mAb, rhCA-IX ECD dimer
[17] = recombinant mAbs, rhCA-IX ECD monomer
[18] = hybridoma-derived mAb, 1 μM rhCA-IX ECD dimer, mAb:rhCA-IX ECD 4:1

B1: 9B6: mouse IgG2b monoclonal antibody inhibiting hCA-IX catalytic activity; SEQ ID NO.14 and 18; hybridoma-derived and recombinant (SEQ ID NO. 24 and 25) (antibody, V domains shown)
VL: DIVLTQSPSSLAVSLGQRATISCKASQSVDYDGNSYMNWFQQKPGQPPKLLIYEASSLESGIPARISGSGSGTDFTLNIHPVEEEDAATYYCQQSYEGPYTFGGGTKLEIK
VH: QVQLQQPGAELVKPGASVKLSCKASGYIFTTKWINWVKQRPGQGLEWIGNIYPGSSNTYYNEKFKNKATLTVDKSSNTAHLQLSSLTSEDSAVYYCARGIANWGQGTPVTVSA
- Antigen in protein mixture Denatured (D) [1]: 1.74
- Antigen in protein mixture Native (C) [1]: 5.79
- mAb binding specificity [1]: rhCA-IX
- preference for native or denatured rhCA-IX ECD [1]: slightly increased preference for the denatured protein
- Ratio (A)/(B) (Possibly epitope related) ([1]; native/denatured purified antigen): 0.68
- Purified Antigen Denatured (B) ([1]; non-purified hybridoma mAb): 21.55
- Purified Antigen Native (A) ([1]; non-purified hybridoma mAb): 14.75
- internalization [2]: internalize in a CA-IX specific manner
- off rate ([3]; Hybridoma-derived): slow
- off rate ([3]; Recombinantly expressed, mIgG2b): slow
- off rate ([4]; Hybridoma-derived, rhCA-IX ECD dimer): extremely slow
- ka [4, 16]: 1.33E+05
- kd [4, 16]: 4.17E−18
- binding kinetics ([4]; recombinant and hybridoma-derived mAb, rhCA-IX ECD dimer (FIG. 12)): poor
- thermostability [5]: slightly less stable than Cetuximab
- SPR binding (cross-reactivity) [6]: no interaction was detected
- SPR binding (cross-reactivity) [7]: no interaction was detected
- SPR binding (cross-reactivity) [8]: no interaction was detected
- competition between 4A2 and 9B6 for binding ([9]; hybridoma-derived mAbs, rhCA-IX ECD monomer or dimer): do not compete
- competition between 4A2 and 9B6 for binding [9, 17]: do not compete for binding to hCA-IX
- competition with cG250 for binding to hCA-IX [9, 17]: neither the 9B6 nor the 4A2 mAb competes with cG250
- Anti-CA-IX Ab binding intensity (normalized on CA-IX_MYC expression on cells) ([10]; Denatured CA-IX protein, EBY100, No-plasmid, Strain Ctrl, Neg Ctrl (PNL6 series)): −
- Anti-CA-IX Ab binding intensity (normalized on CA-IX_MYC expression on cells) ([10]; Denatured CA-IX protein, EBY100, No-plasmid, Strain Ctrl, Neg Ctrl (PNL200 series)): −
- Anti-CA-IX Ab binding intensity (normalized on CA-IX_MYC expression on cells) ([10]; Denatured CA-IX protein, clone 1A, PNL6, Aga2-HA-CA9-MYC, fragment 1, aa 52-111, PG): −
- Anti-CA-IX Ab binding intensity (normalized on CA-IX_MYC expression on cells) ([10]; Denatured CA-IX protein, clone 2B, PNL6, Aga2-HA-CA9-MYC, fragment 2, aa 38-136, +PG+): −
- Anti-CA-IX Ab binding intensity (normalized on CA-IX_MYC expression on cells) ([10]; Denatured CA-IX protein, clone 3A, PNL6, Aga2-HA-CA9-MYC, fragment 3, aa 1-136, SP+PG+): −
- Anti-CA-IX Ab binding intensity (normalized on CA-IX_MYC expression on cells) ([10]; Denatured CA-IX protein, clone 11B, PNL6, Aga2-HA-X-MYC, Plasmid Ctrl, Neg Ctrl): −
- Anti-CA-IX Ab binding intensity (normalized on CA-IX_MYC expression on cells) ([10]; Denatured CA-IX protein, clone 12B, PNL200, CA9-Aga2-MYC, fragment 1, aa 52-111, PG): −
- Anti-CA-IX Ab binding intensity (normalized on CA-IX_MYC expression on cells) ([10]; Denatured CA-IX protein, clone 13A, PNL200, CA9-Aga2-MYC, fragment 2, aa 38-136, +PG+): −
- Anti-CA-IX Ab binding intensity (normalized on CA-IX_MYC expression on cells) ([10]; Denatured CA-IX protein, clone 14A, PNL200, CA9-Aga2-MYC, fragment 3, aa 1-136, SP+PG+): −
- Anti-CA-IX Ab binding intensity (normalized on CA-IX_MYC expression on cells) ([10]; Denatured CA-IX protein, clone 22A, PNL200, X-Aga2-MYC, Plasmid Ctrl, Neg Ctrl): −
- Anti-CA-IX Ab binding intensity (normalized on CA-IX_MYC expression on cells) ([10]; Native CA-IX protein, EBY100, No-plasmid, Strain Ctrl, Neg Ctrl (PNL6 series)): −
- Anti-CA-IX Ab binding intensity (normalized on CA-IX_MYC expression on cells) ([10]; Native CA-IX protein, EBY100, No-plasmid, Strain Ctrl, Neg Ctrl (PNL200 series)): −
- Anti-CA-IX Ab binding intensity (normalized on CA-IX_MYC expression on cells) ([10]; Native CA-IX protein, clone 1A, PNL6, Aga2-HA-CA9-MYC, fragment 1, aa 52-111, PG): −
- Anti-CA-IX Ab binding intensity (normalized on CA-IX_MYC expression on cells) ([10]; Native CA-IX protein, clone 2B, PNL6, Aga2-HA-CA9-MYC, fragment 2, aa 38-136, +PG+): −
- Anti-CA-IX Ab binding intensity (normalized on CA-IX_MYC expression on cells) ([10]; Native CA-IX protein, clone 3A, PNL6, Aga2-HA-CA9-MYC, fragment 3, aa 1-136, SP+PG+): −
- Anti-CA-IX Ab binding intensity (normalized on CA-IX_MYC expression on cells) ([10]; Native CA-IX protein, clone 11B, PNL6, Aga2-HA-X-MYC, Plasmid Ctrl, Neg Ctrl): −
- Anti-CA-IX Ab binding intensity (normalized on CA-IX_MYC expression on cells) ([10]; Native CA-IX protein, clone 12B, PNL200, CA9-Aga2-MYC, fragment 1, aa 52-111, PG): −
- Anti-CA-IX Ab binding intensity (normalized on CA-IX_MYC expression on cells) ([10]; Native CA-IX protein, clone 13A, PNL200, CA9-Aga2-MYC, fragment 2, aa 38-136, +PG+): −
- Anti-CA-IX Ab binding intensity (normalized on CA-IX_MYC expression on cells) ([10]; Native CA-IX protein, clone 14A, PNL200, CA9-Aga2-MYC, fragment 3, aa 1-136, SP+PG+): −
- Anti-CA-IX Ab binding intensity (normalized on CA-IX_MYC expression on cells) ([10]; Native CA-IX protein, clone 22A, PNL200, X-Aga2-MYC, Plasmid Ctrl, Neg Ctrl): −
- Western blot binding to rhCA-IX ECD [11]: do not detect rhCA-IX ECD; also recorded: failed to bind
- binding to cell surface hCA-IX by flow cytometry [12]: virtually no binding was detected
- reduction of cell viability [13]: active in reducing cell viability
- SPR binding (cross-reactivity) [14]: no interaction was detected
- % rhCA-IX ECD Inhibition [15]: 42.59%
- % rhCA-IX ECD Activity [15, 18]: 59.25%
- % rhCA-IX ECD Inhibition [15, 18]: 40% and 40.75%
- Comments ([15]; hybridoma-derived mAb, mAb:rhCA-IX ECD 4:1): Inhibition
- rhCA-IX ECD enzyme activity inhibition ([15]; recombinant mAbs and Fabs, 0.5 μM each, rhCA-IX ECD 0.5 μM dimer, 4-NPA): 40% and 28%
- Data1 ([15]; replicate 1 of % rhCA-IX ECD activity, hybridoma-derived mAb, mAb:rhCA-IX ECD 4:1): 59.25
- Data2 ([15]; replicate 2 of % rhCA-IX ECD activity, hybridoma-derived mAb, mAb:rhCA-IX ECD 4:1): 55.57
